Measurements taken from patent US20110045003A1 (SYNOVEX, published 2011).
Where a chain is given by its changes, count along the chain named. Names and notes keep the numbering of the source.

Experiments:
[1] = target: human Cadherin-11 protein expressed on 431-D-11 cells (human) (UniProt P55287); test: cell-based or functional assay
[2] = target: T1, BSA coupled 37-mer Cad-11 peptide encompassing the Cad-11 immunogen (UniProt P55287 54-90, limits assumed, linked to BSA); test: ELISA, BSA-coupled 37-mer cadherin peptide coated at 500 ng/ml, antibody titrated, A450
T1 construct: domain: 37-mer peptide encompassing the Cad-11 immunogen; also called Cad-11 antigen; Cad-11 peptide immunogen
T1 peptide (looked up): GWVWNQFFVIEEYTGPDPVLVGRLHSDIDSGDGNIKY
Method: Reactibind plates (ThermoScientific) were coated with 500 ng/ml of the BSA coupled cadherin 37-mer peptide (NE peptide) corresponding to Cadherins-7, -8, -9, -11, -18, -20, and -24 in 0.05% Tween (EMD, product code 9480) in PBS (pH 7.2) (Gibco(Invitrogen), #20012) at 100 μl volume/well for overnight at 4° C. The peptide containing solution was removed from the well and the plate blocked with a 2% bovine serum albumin (BSA) in PBS, 200 μl volume/well, for 2 h at 22° C. The plate was then washed twice with 200 μl/well of PBS-Tween 0.05% at 22° C. and blotted dry. A dilution series from 5 μg/ml to 8 ng/ml in a volume of 100 μl/well of each the humanized anti-Cad-11 antibodies were incubated in the peptide coated wells and incubated at 22° C. for 1 hr. Antibody solution was removed from the wells and the plate washed twice with 200 μl/well of 0.05% Tween-PBS at 22° C. and blotted dry. The goat-anti mouse IgG (Pierce # 31432) was added to each well to plate at a 1:1000 dilution, 100 μl/well and incubate at 22° C. for 30 min. The secondary antibody solution was removed and the plate washed twice with 200 μl/well of 0.05% Tween-PBS at 22° C. and blotted dry. The reaction was developed by adding 100 μl/well tetramethylbenzidine (TMB) reagent IgG (Pierce # 34022, 1 step Turbo TMB-ELISA) to plate and developed at 22° C. for 5 min.

[3] = target: T2, recombinant Cad-11 EC1 human IgG1 fusion protein (R&D Systems Cat. No. 1790-CA-050) (human, UniProt P55287 54-617, limits assumed); test: competition ELISA on coated recombinant human Cad-11 EC1 fusion; competitor biotinylated SYN0012/H1M1 at 0.1 µg/ml
T2 construct: Bought protein; the catalogue product may hold more of the extracellular region; also called recombinant human Cad-11 EC1; recombinant human Cad-11 fusion protein; not shown: human IgG1 part of the bought fusion protein
T2 sequence: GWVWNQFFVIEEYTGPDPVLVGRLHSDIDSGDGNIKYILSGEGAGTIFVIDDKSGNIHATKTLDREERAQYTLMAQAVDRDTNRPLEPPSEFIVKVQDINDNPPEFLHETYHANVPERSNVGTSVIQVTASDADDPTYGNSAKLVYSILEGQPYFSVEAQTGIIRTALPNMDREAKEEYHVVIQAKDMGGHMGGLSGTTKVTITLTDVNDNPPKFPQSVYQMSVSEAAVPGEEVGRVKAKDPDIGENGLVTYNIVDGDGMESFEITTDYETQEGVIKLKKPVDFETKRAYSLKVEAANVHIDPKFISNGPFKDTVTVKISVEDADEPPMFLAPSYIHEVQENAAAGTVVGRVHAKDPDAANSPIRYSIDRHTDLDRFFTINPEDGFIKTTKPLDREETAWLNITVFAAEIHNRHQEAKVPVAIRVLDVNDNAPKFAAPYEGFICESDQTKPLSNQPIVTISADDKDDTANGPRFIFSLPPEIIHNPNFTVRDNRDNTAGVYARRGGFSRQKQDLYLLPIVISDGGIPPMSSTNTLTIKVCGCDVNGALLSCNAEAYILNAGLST
Method: (§1) The binding of the purified humanized composite variant antibodies (SDP011 to SDP151) to a recombinant Cad-11 EC1 human IgG1 fusion protein was assessed in a competition binding ELISA. A dilution series from 5 μg/ml to 0.0022 μg/ml of the humanized or control (SYN0012/H1M1) antibodies was premixed with a constant concentration of biotinylated murine anti-Cad-11 antibody, SYN0012/H1M1 (0.1 μg/ml, final concentration), before incubating for 1 hour at room temperature on a Nunc Immuno MaxiSorp 96 well flat bottom microtitre plate (Fisher Cat. No. DIS-971-030J) pre-coated with 0.25 μg/ml recombinant human Cad-11 EC1 (R&D Systems Cat. No. 1790-CA-050) diluted in PBS. The binding of the biotinylated mAb was detected with streptavidin-HRP (Sigma Cat. No. 55512) and tetramethylbenzidine (TMB) substrate (Invitrogen Cat. No. 00-2023).
The relative IC50 was calculated by dividing the value for the test antibody by that of SYN0012. Antibody expression levels given are for static cultures in T flasks. PI are calculated.

[4] = target: T2, recombinant Cad-11 EC1 human IgG1 …; test: competition ELISA on coated recombinant human Cad-11 EC1 fusion protein; competitor biotinylated SYN0012 at 0.1 µg/ml, streptavidin-HRP, OD450
Method: as §1

[5] = target: T1, BSA coupled 37-mer Cad-11 peptide …; test: ELISA on BSA coupled 37-mer cadherin peptides, coat 500 ng/ml
Method: A dilution series from 5 μg/ml to 8 ng/ml in a volume of 100 μl/well of each the humanized anti-Cad-11 antibodies were incubated in the peptide coated wells and incubated at 22° C. for 1 hr. Antibody solution was removed from the wells and the plate washed twice with 200 μl/well of 0.05% Tween-PBS at 22° C. and blotted dry. The goat-anti mouse IgG (Pierce # 31432) was added to each well to plate at a 1:1000 dilution, 100 μl/well and incubate at 22° C. for 30 min. The secondary antibody solution was removed and the plate washed twice with 200 μl/well of 0.05% Tween-PBS at 22° C. and blotted dry. The reaction was developed by adding 100 μl/well tetramethylbenzidine (TMB) reagent IgG (Pierce # 34022, 1 step Turbo TMB-ELISA) to plate and developed at 22° C. for 5 min.
The greatest cross reactivity was seen against Cad-8. […] This assay was repeated with the Cad-11, Cad-8 and Cad-18 antigens with a lower antigen coat concentration of 50 ng/ml and a wider dilution series of the SDP051 antibody (FIG. 41B). […] An EC50 for Cad-18 could not be established due to the low level of binding observed.

[6] = target: T2, recombinant Cad-11 EC1 human IgG1 …; test: competition ELISA: antibody dilution series premixed with biotinylated SYN0012/H1M1 (0.1 µg/ml) on plate-coated recombinant human Cad-11 EC1 fusion protein; OD450 = bound biotinylated SYN0012
Method: as §1

Molecule: human Cad-11-EC1-hIgG2-Fc1 fusion protein (Fc fusion)
- in vitro cell aggregation assay [1]: 3 µg/mL

B1: humanized anti-Cad-11 antibody SDP081 (Vκ2/VH3) (antibody, IgG4, V domains shown)
VH: EVQLVQSGAEVKKPGASVKISCKASGYSFTGYFMNWVRQAPGQGLEWIGRINPYTGDTFYNQKFKGRATLTVDKSTSTAYMELSSLRSEDTAVYYCGRLGSRYWYFDVWGQGTTVTVSS
VL: DVLMTQTPLSSPVTLGQPASISCRSSQSIIHSNGNTYLEWYLQKPGQSPQLLIYKVSNRFSGVPDRFSGSGSGTDFTLKISRVEAEDVGVYYCFQGSHVPWTFGQGTKLEIK
notes: humanized IgG4 (S241P), kappa
- EC50 (read off the curve) [2]: ~0.08 µg/mL
- relative IC50 (IC50 of the test antibody divided by that of SYN0012) [3]: 0.42 ratio (column head prints µg/mL)

B2: humanized anti-Cad-11 antibody SDP011 (Vκ1/VH1) (antibody, IgG4, V domains shown)
VH: B1 VH with A9P, V11L, R38K, P41H, T76S, S84V, R87S, T91S
VL: B1 VL with S68T
notes: humanized IgG4 (S241P), kappa
- EC50 (read off the curve) [2]: ~0.07 µg/mL
- relative IC50 (IC50 of the test antibody divided by that of SYN0012) [3]: 0.91 ratio (column head prints µg/mL)
- IC50 (read off the curve) [4]: ~0.2 µg/mL

B3: humanized anti-Cad-11 antibody SDP021 (Vκ1/VH2) (antibody, IgG4, V domains shown)
VH: B1 VH with R38K
VL: B1 VL with S68T
notes: humanized IgG4 (S241P), kappa
- EC50 (read off the curve) [2]: ~0.06 µg/mL
- relative IC50 (IC50 of the test antibody divided by that of SYN0012) [3]: 0.67 ratio (column head prints µg/mL)
- IC50 (read off the curve) [4]: ~0.1 µg/mL

B4: humanized anti-Cad-11 antibody SDP031 (Vκ1/VH3) (antibody, IgG4, V domains shown)
VH: B1 VH
VL: B1 VL with S68T
notes: humanized IgG4 (S241P), kappa
- fold greater binding to the Cad-11 antigen than to the related antigens from the other cadherins [5]: > 20 fold
- EC50 (read off the curve) [2]: ~0.06 µg/mL
- relative IC50 (IC50 of the test antibody divided by that of SYN0012) [3]: 0.84 ratio (column head prints µg/mL)
- IC50 (read off the curve) [4]: ~0.2 µg/mL

B5: humanized anti-Cad-11 antibody SDP041 (Vκ1/VH4) (antibody, IgG4, V domains shown)
VH: B1 VH with I20V, L70I
VL: B1 VL with S68T
notes: humanized IgG4 (S241P), kappa
- EC50 (read off the curve) [2]: ~0.06 µg/mL
- relative IC50 (IC50 of the test antibody divided by that of SYN0012) [3]: 0.65 ratio (column head prints µg/mL)
- IC50 (read off the curve) [4]: ~0.1 µg/mL

B6: humanized anti-Cad-11 antibody SDP061 (Vκ2/VH1) (antibody, IgG4, V domains shown)
VH: B1 VH with A9P, V11L, R38K, P41H, T76S, S84V, R87S, T91S
VL: B1 VL
notes: humanized IgG4 (S241P), kappa
- fold greater binding to the Cad-11 antigen than to the related antigens from the other cadherins [5]: > 20 fold
- EC50 (read off the curve) [2]: ~0.06 µg/mL
- relative IC50 (IC50 of the test antibody divided by that of SYN0012) [3]: 0.47 ratio (column head prints µg/mL)

B7: humanized anti-Cad-11 antibody SDP071 (Vκ2/VH2) (antibody, IgG4, V domains shown)
VH: B1 VH with R38K
VL: B1 VL
notes: humanized IgG4 (S241P), kappa
- fold greater binding to the Cad-11 antigen than to the related antigens from the other cadherins [5]: > 20 fold
- EC50 (read off the curve) [2]: ~0.07 µg/mL
- relative IC50 (IC50 of the test antibody divided by that of SYN0012) [3]: 0.33 ratio (column head prints µg/mL)

B8: humanized anti-Cad-11 antibody SDP091 (Vκ2/VH4) (antibody, IgG4, V domains shown)
VH: B1 VH with I20V, L70I
VL: B1 VL
notes: humanized IgG4 (S241P), kappa
- EC50 (read off the curve) [2]: ~0.07 µg/mL
- relative IC50 (IC50 of the test antibody divided by that of SYN0012) [3]: 0.57 ratio (column head prints µg/mL)

B9: humanized anti-Cad-11 antibody SDP101 (Vκ2/VH5) (antibody, IgG4, V domains shown)
VH: B1 VH with I20V, A68V, L70I
VL: B1 VL
notes: humanized IgG4 (S241P), kappa
- EC50 (read off the curve) [2]: ~0.07 µg/mL
- relative IC50 (IC50 of the test antibody divided by that of SYN0012) [3]: 0.53 ratio (column head prints µg/mL)

B10: humanized anti-Cad-11 antibody SDP111 (Vκ3/VH1) (antibody, IgG4, V domains shown)
VH: B1 VH with A9P, V11L, R38K, P41H, T76S, S84V, R87S, T91S
VL: B1 VL with L3V
notes: humanized IgG4 (S241P), kappa
- EC50 (read off the curve) [2]: ~0.07 µg/mL
- relative IC50 (IC50 of the test antibody divided by that of SYN0012) [3]: 0.68 ratio (column head prints µg/mL)
- IC50 (read off the curve) [6]: ~0.2 µg/mL

B11: humanized anti-Cad-11 antibody SDP121 (Vκ3/VH2) (antibody, IgG4, V domains shown)
VH: B1 VH with R38K
VL: B1 VL with L3V
notes: humanized IgG4 (S241P), kappa
- EC50 (read off the curve) [2]: ~0.06 µg/mL
- relative IC50 (IC50 of the test antibody divided by that of SYN0012) [3]: 0.52 ratio (column head prints µg/mL)
- IC50 (read off the curve) [6]: ~0.2 µg/mL

B12: humanized anti-Cad-11 antibody SDP131 (Vκ3/VH3) (antibody, IgG4, V domains shown)
VH: B1 VH
VL: B1 VL with L3V
notes: humanized IgG4 (S241P), kappa
- EC50 (read off the curve) [2]: ~0.07 µg/mL
- relative IC50 (IC50 of the test antibody divided by that of SYN0012) [3]: 0.55 ratio (column head prints µg/mL)
- IC50 (read off the curve) [6]: ~0.2 µg/mL

B13: humanized anti-Cad-11 antibody SDP141 (Vκ3/VH4) (antibody, IgG4, V domains shown)
VH: B1 VH with I20V, L70I
VL: B1 VL with L3V
notes: humanized IgG4 (S241P), kappa
- EC50 (read off the curve) [2]: ~0.06 µg/mL
- relative IC50 (IC50 of the test antibody divided by that of SYN0012) [3]: 0.61 ratio (column head prints µg/mL)
- IC50 (read off the curve) [6]: ~0.2 µg/mL

B14: humanized anti-Cad-11 antibody SDP151 (Vκ3/VH5) (antibody, IgG4, V domains shown)
VH: B1 VH with I20V, A68V, L70I
VL: B1 VL with L3V
notes: humanized IgG4 (S241P), kappa
- EC50 (read off the curve) [2]: ~0.06 µg/mL
- relative IC50 (IC50 of the test antibody divided by that of SYN0012) [3]: 0.72 ratio (column head prints µg/mL)
- IC50 (read off the curve) [6]: ~0.2 µg/mL
